Measured values as given in paper PMC3131678.

Substrate: O=[N+]([O-])c1ccc(O)cc1
Assay: cells, lysate or membranes named
Conditions: other: PNPH; CI 95% confidence interval; pH 7.4; 37.0 °C
Protocol: Briefly, liver samples were homogenised in 10 mM Tris-HCl, 250 mM sucrose (pH7.4) and centrifuged for 10 minutes at 10.000×g. Afterwards, CaCl2 to a final concentration of 8 mM was added to the supernatant, and the samples were centrifuged at 25.000×g for 30 minutes. The protein concentrations of the microsomal fraction (pellet) were determined with a commercially available kit (Bio-Rad laboratories) according to the manufacturer's instructions and bovine serum albumin was used as standard. The prepared microsomes were diluted to a final protein concentration of 4 mg/ml and stored at –80°C before analysis. All procedures were done on ice.
Briefly, microsomes were incubated together with the appropriate type of substrate and NADPH at 37°C. The resulting production of resorufin or p-nitrochetecol was measured by HPLC. For studying inhibition, steroids were additionally added to the microsomes. Inhibition studies were performed using a pool of microsomes from three male pigs. […] All steroids were dissolved in methanol. The final concentration of methanol was below 0.1% in the reaction volumes. The same amount of methanol was added to the blank incubations. For the kinetic studies, the activities were determined with substrate concentrations ranging from 0.1 to 4.0µM for EROD and MROD, and from 0.01 to 2mM for PNPH. Kinetic studies were performed under linear conditions. […]

B1: CYP2E1 (Sus scrofa) (protein)
chain: MTALGITVALLVWLVTLLLISIWKHIHSSWKLPPGPFPLPIVGNIFQLDLKNIPKSFTMLAERYGPVFTVYLGSRRIVVLHGYKAVKEVLLHYKNEFSGRGEIPTFQVHKDKGVIFNNGPTWRDTRRFSLTTLRDFGMGKQGNEQRIQREAHFLLEALRKTHGQPFDPTFLIGCAPCNVISDILFRQHFDYNDKTCLRLMSMFNENFYLLSTGWIQLYNNFSGYLRYLPGSHRKLMKNISEIKDYALERVKDHRDSLEPSCPRDFTDTLLMEMEKEKYSAEPIYTLDNIAVTVADMFFAGTETTSTTLRYGLLILMKYPEVEEKLHEEIDRVIGPNRIPAIKDRLVMPYLDAVVHEIQRFIDLIPSNLPHEATRDTDFRDYIIPKGTVVIPTLDSVLYDSQEFPEPEKFKPEHFLNENGKFKYSDHFKAFSAGKRVCVGEGLARMELFLFMAAILQHFNLKSLVDPKDIDLSPIAIGFAKIPPHYKLCVIPRSQV
With B1 the Km was 0.33 (0.214–0.452) µM.
